# Square brackets hold non-standard residues; d marks the D form. octavalent 20 kDa PEG = 20 kDa PEG with eight arms, each linked to one peptide copy through Cys; tetravalent 20 kDa PEG = 20 kDa PEG with four arms, each linked to one peptide copy through Cys; trivalent 20 kDa PEG = 20 kDa PEG with three arms, each linked to one peptide copy through Cys; hArg = N=C(N)NCCCC[C@H](N)C(=O)O; Cit = NC(=O)NCCC[C@H](N)C(=O)O; 3IPA = not defined here
# Target: T1, CGRP1 receptor (CRLR/RAMP1 complex) of human neuroblastoma SK-N-MC cells (human, UniProt Q16602 23-461; O60894 27-148)
# Test: cell-based or functional assay
# T1 sequence (Q16602 23-461, chain 1 of 2): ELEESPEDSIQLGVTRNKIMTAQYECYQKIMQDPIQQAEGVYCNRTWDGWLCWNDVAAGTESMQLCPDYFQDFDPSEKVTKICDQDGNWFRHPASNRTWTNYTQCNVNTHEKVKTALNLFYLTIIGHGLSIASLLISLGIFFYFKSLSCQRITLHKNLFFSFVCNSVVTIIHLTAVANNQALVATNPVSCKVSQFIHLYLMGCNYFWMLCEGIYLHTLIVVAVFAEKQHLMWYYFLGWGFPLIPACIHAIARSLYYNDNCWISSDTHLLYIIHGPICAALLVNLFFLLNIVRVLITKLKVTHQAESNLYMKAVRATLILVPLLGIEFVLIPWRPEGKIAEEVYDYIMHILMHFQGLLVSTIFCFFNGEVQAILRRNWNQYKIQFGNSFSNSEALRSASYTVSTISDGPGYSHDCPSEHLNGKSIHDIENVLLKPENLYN
# T1 sequence (O60894 27-148, chain 2 of 2): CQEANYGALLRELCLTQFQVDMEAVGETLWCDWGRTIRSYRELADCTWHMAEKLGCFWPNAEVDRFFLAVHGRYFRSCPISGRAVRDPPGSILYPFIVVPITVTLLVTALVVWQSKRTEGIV
row,Binder,IC50 [nM]
1,WVTHXLAGLLSXSGGVVRKNFVPTDVGPFAF (Ac-WVTH[hArg]LAGLLS[hArg]SGGVVRKNFVPTDVGPFAF-amide) [SEQ ID NO 784],2.1
2,WVTHXLAGLLSXSGGVVRKNFVPTDVGPFAF (Ac-WVTH[hArg]LAGLLS[hArg]SGGVVRK^(20 kDa MeO-PEG)NFVPTDVGPFAF-amide) [SEQ ID NO 785],0.37
3,WVTHRLAGLLSXSGGVVRKNFVPTDVGPFAF (Ac-WVTHRLAGLLS[hArg]SGGVVRKNFVPTDVGPFAF-amide) [SEQ ID NO 786],0.57
4,Ac-WVTHRLAGLLSRSGGVVRC(20 kDa branched MeO‑PEG2)NFVPTDVGPFAF-NH2 [SEQ ID NO 768],23.8
5,"{Ac-3IPA}-VTHRLAGLLSRSGGVVRC(20 kDa MeO‑PEG)NFVPTDVGPFAF-NH2 (reading uncertain; also: places 3IPA at position 1, printed as Ac-[3IPA]-VTHRLAGLLSRSGGVVRC^(20 kDa MeO-PEG)NFVPTDVGPFAF-amide) [SEQ ID NO 779]",2.22
6,Ac-WVTHRLAGLLSRSGGVVRCNFVPTDVGPFAF-NH2 [SEQ ID NO 764],0.91
7,Ac-WVTHRLAGLLS[dR]SGGVVRC(MeO‑PEG 20 kDa)NFVPTDVGPFAF-NH2 [SEQ ID NO 777],19.4
8,Ac-WVTHRLAGLLSRSGGVVRC(20 kDa branched MeO‑PEG2)NFVPTDVGPFAF-NH2 [SEQ ID NO 770],0.17
9,Ac-WVTHRLAGLLSRSGGVVRC(trivalent 20 kDa PEG)NFVPTDVGPFAF-NH2 (also: trivalent PEG joins three peptide copies) [SEQ ID NO 781],0.19
10,Ac-WVTHRLAGLLSRSGGVVRC(octavalent 20 kDa PEG)NFVPTDVGPFAF-NH2 (also: eight peptides linked via Cys to one octavalent 20 kDa PEG) [SEQ ID NO 783],1.4
11,Ac-WVTHRLAGLLSASGGVVRC(20 kDa MeO‑PEG)NFVPTDVGPFAF-NH2 [SEQ ID NO 773],6.2
12,Ac-WVTHRLAGLLSRSGGVVRC(tetravalent 20 kDa PEG)NFVPTDVGPFAF-NH2 (also: tetravalent PEG joins four peptide copies) [SEQ ID NO 782],0.08
13,Ac-WVTHRLAGLLSRSGGVVRC(30 kDa MeO‑PEG)NFVPTDVGPFAF-NH2 [SEQ ID NO 767],7.86
14,Ac-WVTHRLAGLLSRSGGVVRC(5 kDa MeO‑PEG)NFVPTDVGPFAF-NH2 [SEQ ID NO 765],2.52
15,Ac-WVTHRLAGLLSASGGVVRCNFVPTDVGPFAF-NH2 [SEQ ID NO 772],2.75
16,Ac-WVTHRLAGLLSRSGGVVRC(40 kDa branched MeO‑PEG2)NFVPTDVGPFAF-NH2 [SEQ ID NO 769],33.4
17,"{Ac-3IPA}-VTHRLAGLLSRSGGVVRCNFVPTDVGPFAF-NH2 (reading uncertain; also: places 3IPA at position 1, printed as Ac-[3IPA]-VTHRLAGLLSRSGGVVRCNFVPTDVGPFAF-amide) [SEQ ID NO 778]",0.35
18,Ac-WVTHRLAGLLSQSGGVVRC(20 kDa MeO‑PEG)NFVPTDVGPFAF-NH2 [SEQ ID NO 775],4.69
19,Ac-WVTHRLAGLLS[dR]SGGVVRCNFVPTDVGPFAF-NH2 (SMILES CC(=O)N[C@@H](Cc1c[nH]c2ccccc12)C(=O)N[C@H](C(=O)N[C@H](C(=O)N[C@@H](Cc1c[nH]cn1)C(=O)N[C@@H](CCCNC(=N)N)C(=O)N[C@@H](CC(C)C)C(=O)N[C@@H](C)C(=O)NCC(=O)N[C@@H](CC(C)C)C(=O)N[C@@H](CC(C)C)C(=O)N[C@@H](CO)C(=O)N[C@H](CCCNC(=N)N)C(=O)N[C@@H](CO)C(=O)NCC(=O)NCC(=O)N[C@H](C(=O)N[C@H](C(=O)N[C@@H](CCCNC(=N)N)C(=O)N[C@@H](CS)C(=O)N[C@@H](CC(N)=O)C(=O)N[C@@H](Cc1ccccc1)C(=O)N[C@H](C(=O)N1CCC[C@H]1C(=O)N[C@H](C(=O)N[C@@H](CC(=O)O)C(=O)N[C@H](C(=O)NCC(=O)N1CCC[C@H]1C(=O)N[C@@H](Cc1ccccc1)C(=O)N[C@@H](C)C(=O)N[C@@H](Cc1ccccc1)C(N)=O)C(C)C)[C@@H](C)O)C(C)C)C(C)C)C(C)C)[C@@H](C)O)C(C)C) [SEQ ID NO 776],0.59
20,Ac-WVTHRLAGLLSRSGGVVRC(20 kDa NEM‑PEG)NFVPTDVGPFAF-NH2 [SEQ ID NO 771],0.3

# Target: T1, CGRP1 receptor (CRLR/RAMP1 complex) of …
# Test: cell-based or functional assay
# Remark: another data set of the same source
Binder,PEG-peptide IC50 [nM],Peptide IC50 [nM]
"Ac-WVTHQLAGLLSQSGGVV[hArg]KNFVPTDVGPFAF-NH2 (also: PEG-conjugated, in most cases at Lys25) [PEG-peptide of SEQ ID NO 885]",12.4,–
WVTHXLAGLLSXSGGVVXKNFVPTDVGPFAF (Ac-WVTH[hCit]LAGLLS[hCit]SGGVV[hArg]KNFVPTDVGPFAF-NH2) [SEQ ID NO 886],–,4.96
"Ac-WVTHQLAGLLS[Cit]SGGVV[hArg]KNFVPTDVGPFAF-NH2 (also: PEG-conjugated, in most cases at Lys25) [PEG-peptide of SEQ ID NO 884]",8.87,–
Ac-WVTHQLAGLLSQSGGVV[hArg]KNFVPTDVGPFAF-NH2 (SMILES CC(=O)N[C@@H](Cc1c[nH]c2ccccc12)C(=O)N[C@H](C(=O)N[C@H](C(=O)N[C@@H](Cc1c[nH]cn1)C(=O)N[C@@H](CCC(N)=O)C(=O)N[C@@H](CC(C)C)C(=O)N[C@@H](C)C(=O)NCC(=O)N[C@@H](CC(C)C)C(=O)N[C@@H](CC(C)C)C(=O)N[C@@H](CO)C(=O)N[C@@H](CCC(N)=O)C(=O)N[C@@H](CO)C(=O)NCC(=O)NCC(=O)N[C@H](C(=O)N[C@H](C(=O)N[C@@H](CCCCNC(=N)N)C(=O)N[C@@H](CCCCN)C(=O)N[C@@H](CC(N)=O)C(=O)N[C@@H](Cc1ccccc1)C(=O)N[C@H](C(=O)N1CCC[C@H]1C(=O)N[C@H](C(=O)N[C@@H](CC(=O)O)C(=O)N[C@H](C(=O)NCC(=O)N1CCC[C@H]1C(=O)N[C@@H](Cc1ccccc1)C(=O)N[C@@H](C)C(=O)N[C@@H](Cc1ccccc1)C(N)=O)C(C)C)[C@@H](C)O)C(C)C)C(C)C)C(C)C)[C@@H](C)O)C(C)C) [SEQ ID NO 885],–,1.42
"Ac-WVTH[Cit]LAGLLSQSGGVV[hArg]KNFVPTDVGPFAF-NH2 (also: PEG-conjugated, in most cases at Lys25) [PEG-peptide of SEQ ID NO 883]",7.42,–

# — patent publication US20080020978A1 (Amgen, published 2008)
